Here are results for one molecule from patent US20250304636A1 (H LEE MOFFITT CANCER CENTER AND RESEARCH INSTITUTE, published 2025).

The target of this assay is T1, Syk (UniProt P43405 1-635, limits assumed).
T1 construct: also called Syk kinase; pcDNA3-Syk
Put plainly: co-immunoprecipitation from co-transfected AD293 cells. How it is done:
AD293 cells (a cell line derived from HEK293 with improved cell adherence and plaque formation, Agilent) were washed with Dulbecco's PBS (DPBS), and resuspended in 2.0 μg/ml of anti-human TREM-1 antibody (R&D Systems) on ice for 30 min. After washing with DPBS, cells were incubated with 1.0 μg/ml of Affinipure rabbit anti-mouse IgG (H+L) Ab (Jackson Immunoresearch) at 37° C. for 10 min. Cells were then scraped off the plates and followed by centrifugation at 400 g for 10 minutes at 4° C. Cells were washed twice with cold 1×DPBS and lysed on ice for 30 min at 4° C. in 1 ml of lysis buffer (1% NP-40, 10 mM Tris, 150 mM NaCl, 0.5 mM phenylmethylsulfonyl fluoride, 10 mM iodoacetamide, 50 mM NaF, 1 mM ethylenediamenetetraacetic acid, 1 mM sodium orthovanadate, 0.25% sodium Deoxycholate, 10 μl Ala-Ala-Phe p-nitroanilide (SIGMA), 10 μl protease cocktail I (SIGMA cat #P2850) and 10 μl protease cocktail II (SIGMA cat #P5726). Cell lysates were centrifuged at 12,000 g at 4° C. for 15 minutes to remove nuclei and cell debris, after which the clarified lysate supernatant was isolated. The protein concentration of the soluble extracts was determined using the Bradford protein assay (Bio-Rad, Hercules, CA, USA) following manufacturer protocol. Western blots were blocked in PBST containing 4% BSA for 1 h and then incubated overnight at 4° C. in primary antibodies. […]

B1: wild-type DAP12 (12-kilodalton DNAX activating protein) (other)
chain: IALAVYFLGRLVPRGRGAAEAATRKQRITETESPYQELQGQRSDVYSDLNTQRPYYK
notes: Over-expressed from pcDNA3 in AD293 cells together with pcDNA3-Syk; co-immunoprecipitated from cell lysates; No signal peptide limits are stated; also called WT DAP12; WT
For the molecule B1, the binding result was “no binding”.
